Biological target: CsrA (Salmonella Typhimurium) (UniProt P69916)
Assay: SEC; S75 Superdex column after Ni2+-NTA; SEC buffer 25 mM Tris, 150 mM NaCl, 10% glycerol, 1 mM DTT, pH 7.5; oligomeric state judged from the elution profile

Sequence of CsrA, P69916 1-61 (natural protein; other documents disagree on this pair) (P69916 whole entry): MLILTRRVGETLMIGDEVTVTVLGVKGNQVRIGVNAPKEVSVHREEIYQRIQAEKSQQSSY

Substance “CsrA, P69916 1-61 (natural protein; other documents disagree on this pair)” has a stoichiometry N of 2.

From PMC12410710
